Experimental data reported in publication PMC2923778 (Journal of Molecular Biology, 2010).
Each block holds one binder with its values, some of them ahead of it.

Key:
hSPSB1(24–233) = target: T1, hSPSB1(24–233) (human, UniProt Q96BD6 24-233); experiment: ITC; 100 μM peptide titrated into 10 μM hSPSB protein; 20 °C; 50 mM Hepes pH 7.4, 150 mM NaCl, 1 mM DTT (hSPSB1) or 0.5 mM TCEP (hSPSB2, hSPSB4); single binding site model; conditions: both partners purified
T1 construct: human SPSB1 lacking the SOCS box region, residues 24-233; also called human SPSB1 SPRY domain; source: E. coli BL21(DE3)-R3-pRARE2, purified (Ni-Sepharose, TEV cleavage, size-exclusion, anion exchange); not shown: His6, N-terminal, cleaved
T1 sequence (looked up): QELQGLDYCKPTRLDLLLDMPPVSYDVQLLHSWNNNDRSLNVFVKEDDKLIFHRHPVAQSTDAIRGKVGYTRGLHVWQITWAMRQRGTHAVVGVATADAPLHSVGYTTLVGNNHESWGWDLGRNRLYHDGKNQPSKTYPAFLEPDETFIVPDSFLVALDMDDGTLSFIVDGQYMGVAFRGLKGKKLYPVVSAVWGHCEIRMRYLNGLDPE

hSPSB2(26–219) = target: T2, hSPSB2(26–219) (human, UniProt Q99619 26-219); experiment: as above; conditions: both partners purified
T2 construct: human SPSB2 lacking the SOCS box region, residues 26-219; also called human SPSB2 SPRY domain; source: E. coli BL21(DE3)-R3-pRARE2, purified (Ni-Sepharose, size-exclusion); not shown: His6, N-terminal, kept
T2 sequence (looked up): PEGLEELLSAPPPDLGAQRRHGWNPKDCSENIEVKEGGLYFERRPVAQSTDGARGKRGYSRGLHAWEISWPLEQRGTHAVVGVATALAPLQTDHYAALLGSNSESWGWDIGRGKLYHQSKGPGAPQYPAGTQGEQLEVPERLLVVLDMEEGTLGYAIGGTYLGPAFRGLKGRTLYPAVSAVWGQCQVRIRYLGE

mSPSB4ΔSB (murine) = experiment: ITC; 100 μM peptide titrated into 10 μM mSPSB protein; 22 °C; 20 mM Tris, 150 mM sodium chloride, 2.5 mM calcium chloride, pH 8.0; single binding site model
mSPSB2(12–224) [1] = target: T3, mSPSB2(12–224) (murine, UniProt O88838 12-224); experiment: as above; conditions: both partners purified
T3 construct: murine SPSB2 (SSB-2), residues 12-224: lacks the first 11 residues and the C-terminal SOCS box; Uniformly 15N-labelled in one NMR experiment; also called mSPSB2ΔSB; 15N-mSPSB2(12–224); source: E. coli Origami B(DE3) pLysS, GST fusion, purified (glutathione-Sepharose, thrombin cleavage, gel filtration)
T3 sequence (looked up): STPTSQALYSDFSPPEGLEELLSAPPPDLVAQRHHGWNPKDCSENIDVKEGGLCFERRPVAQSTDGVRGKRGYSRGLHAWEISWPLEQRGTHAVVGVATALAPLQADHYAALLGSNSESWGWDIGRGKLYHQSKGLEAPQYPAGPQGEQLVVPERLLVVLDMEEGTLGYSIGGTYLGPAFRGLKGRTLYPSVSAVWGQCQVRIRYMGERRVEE

Par-4 = target: T4, Par-4 (Homo sapiens, UniProt Q96IZ0); experiment: ITC
T4 chain: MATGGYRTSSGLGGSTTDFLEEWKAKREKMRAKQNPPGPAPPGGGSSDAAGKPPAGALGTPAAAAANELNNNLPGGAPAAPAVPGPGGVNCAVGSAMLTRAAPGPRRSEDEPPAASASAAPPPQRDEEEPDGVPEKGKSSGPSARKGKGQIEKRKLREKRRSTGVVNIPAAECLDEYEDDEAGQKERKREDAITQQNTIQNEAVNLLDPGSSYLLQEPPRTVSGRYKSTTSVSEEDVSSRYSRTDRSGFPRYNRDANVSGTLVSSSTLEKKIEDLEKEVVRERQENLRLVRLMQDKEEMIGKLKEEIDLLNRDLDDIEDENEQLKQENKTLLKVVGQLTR

mSPSB1ΔSB (murine) = experiment: ITC; 100 μM peptide titrated into 10 μM mSPSB protein; 22 °C; 20 mM Tris, 150 mM sodium chloride, 2.5 mM calcium chloride, pH 8.0; single binding site model
mSPSB2(12–224) [2] = target: T3, mSPSB2(12–224); experiment: as above; conditions: both partners purified; remark: listed apart in the source

B1: VASA(184–203) (peptide)
peptide: DINNNNNIVEDVERKREFYI
notes: DEAD-box RNA helicase VASA of Drosophila, residues 184-203; also called VASA-derived peptide; source: synthetic peptide (ThermoElectron GmbH)
dH (hSPSB1(24–233)): -20.5 ± 0.2 kcal/mol
stoichiometry N (hSPSB1(24–233)): 0.96
Kd (hSPSB2(26–219)): 147 nM
dH (hSPSB2(26–219)): -23.9 ± 0.1 kcal/mol
stoichiometry N (hSPSB2(26–219)): 0.96

B3: SPSB2 (protein)
chain: MGQTALAGGSSSTPTPQALYPDLSCPEGLEELLSAPPPDLGAQRRHGWNPKDCSENIEVKEGGLYFERRPVAQSTDGARGKRGYSRGLHAWEISWPLEQRGTHAVVGVATALAPLQTDHYAALLGSNSESWGWDIGRGKLYHQSKGPGAPQYPAGTQGEQLEVPERLLVVLDMEEGTLGYAIGGTYLGPAFRGLKGRTLYPAVSAVWGQCQVRIRYLGERRAEPHSLLHLSRLCVRHNLGDTRLGQVSALPLPPAMKRYLLYQ
Kd (Par-4): 1500 nM

B4: hPar-4(64–77) (peptide)
peptide: AAANELNNNLPGGA
notes: human prostate apoptosis response protein-4 (hPar-4), residues 64-77; also called shorter wild-type hPar-4 peptide; source: synthetic peptide (GenScript Corporation)
Kd (mSPSB1ΔSB (murine)): 210 nM
Kd (mSPSB4ΔSB (murine)): 213 nM
Kd (mSPSB2(12–224) [2]): 3100 nM
Kd (mSPSB2(12–224) [1]): 3200 nM

B7: [N71A]hPar-4(64–77) (peptide)
peptide: AAANELNANLPGGA
notes: human prostate apoptosis response protein-4 (hPar-4), residues 64-77, N71A; source: synthetic peptide (GenScript Corporation)
Kd (mSPSB1ΔSB (murine)): > 50000 nM
Kd (mSPSB4ΔSB (murine)): > 50000 nM

B9: [N70A]hPar-4(64–77) (peptide)
peptide: AAANELANNLPGGA
notes: human prostate apoptosis response protein-4 (hPar-4), residues 64-77, N70A; source: synthetic peptide (GenScript Corporation)
Kd (mSPSB1ΔSB (murine)): > 50000 nM
Kd (mSPSB4ΔSB (murine)): > 50000 nM

B10: hPar-4(67–81) (peptide)
peptide: NELNNNLPGGAPAAP
notes: human prostate apoptosis response protein-4 (hPar-4), residues 67-81; source: synthetic peptide (ThermoElectron GmbH)
Kd (hSPSB1(24–233)): 150 nM
dH (hSPSB1(24–233)): -13.2 ± 0.1 kcal/mol
stoichiometry N (hSPSB1(24–233)): 0.94
Kd (hSPSB2(26–219)): 1520 nM
dH (hSPSB2(26–219)): -16.2 ± 0.1 kcal/mol
stoichiometry N (hSPSB2(26–219)): 1.18

Other lines, results leading:

Kd (mSPSB4ΔSB (murine)): 255 nM
Kd (mSPSB2(12–224) [1]): 4000 nM
B2: [A66D]hPar-4(59–77) (peptide)
peptide: GTPAAAADNELNNNLPGGA
notes: human prostate apoptosis response protein-4 (hPar-4), residues 59-77, A66D; source: synthetic peptide (GL Biochem)

Kd (mSPSB1ΔSB (murine)): 40 nM
Kd (mSPSB4ΔSB (murine)): 33 nM
Kd (mSPSB2(12–224) [1]): 106 nM
B5: [E68D,L69I]hPar-4(64–77) (peptide)
peptide: AAANDINNNLPGGA
notes: human prostate apoptosis response protein-4 (hPar-4), residues 64-77, E68D and L69I (DINNN motif as in VASA); also called double mutant; source: synthetic peptide (GenScript Corporation)

Kd (mSPSB4ΔSB (murine)): 55 nM
Kd (mSPSB2(12–224) [1]): 1600 nM
B6: [L69I]hPar-4(64–77) (peptide)
peptide: AAANEINNNLPGGA
notes: human prostate apoptosis response protein-4 (hPar-4), residues 64-77, L69I

Kd (mSPSB4ΔSB (murine)): 47 nM
Kd (mSPSB2(12–224) [1]): 208 nM
B8: [E68D]hPar-4(64–77) (peptide)
peptide: AAANDLNNNLPGGA
notes: human prostate apoptosis response protein-4 (hPar-4), residues 64-77, E68D
